Measurements: the DeepSol protein solubility set

experiment: soluble on expression in E. coli; label from the status in PepcDB or PDB records

Row | Sequence | soluble on expression in E. coli
1 | MSRLRVFRQTGWFIAGLMTGLPATAAPAEASSMAGVAVAVATTTPPDATATLQAMQSCRRESAALERLDCYDHLLAPLSPSGFDGALVKAGFVGEAWTRATEQEKRREGNTTELLVTQVPGERPTVVITTPAIGHVPPRPVLMFSCVDNITRMQVALMHPLDVHDIAVTLNADSRALRSHWFVRENGTLLESSRGLSGIDEIKQLFGAKTLTVDTGADNAAGKLTFNIDGLARAIAPLRDACHWAGE | not soluble
2 | MKTFFIVASLLAVGLVLAEDSEEKSEVKDVKPWKKLDFKKREPEFLKEMSQDAKTAYFGIKFNPELTKAEKTRMLKEWADQYDVEDDMQKFLDAKKADCDKKKQERKDNYERLGDLIEKADEILDDQENTWNGANEKLEALVKDENRDVMKAFQSFYPFVGRDSEGPRHGHGHGHGHRFHHGRRFGRNIGGGAAPRYNGGGIGSGISIGENPRHHNGGIGSGISMGERHRDGESYDAYGNSKHHHKKHHGF | not soluble
3 | TKDFTWTTDFNIAFNNNKITSYPQKEEVVGTKIRTVGYSIYEFYMQEWAGVDPVNGDPLWYMDVTDDKGNPTGERTTTNTYSKATKYKLGSALPSATGGLTNTVSWKGVDFSFMFTYGFGGKIYDVYEENLLNDGNKTGYQLITEQADSWTPENTNASNPKFIPNNSNTSNGRSSRYLHNADFIKLKNISLGYSLPKSLIKKNLLQNVRIYVSADNLITWNLDKKFKSYDVELGGVDGLLDGGGTVPLARTFTAGINLTF | not soluble
4 | AHHHHHHGSAQLAGQPILILPEGTQRYVGRDAQRMNILAARIVAETIRTTLGPKGMDKMLVDSLGDIVITNDGATILDEMDIQHPAAKMMVEVAKTQDKEAGDGTTTAVVIAGELLRKAEELLDQNIHPSIIIKGYTLAAQKAQEILENIAKEVKPDDEEILLKAAMTSITGKAAEEEREYLAKLAVEAVKLVAEKEDGKYKVDIDNIKLEKKEGGSVRDTQLIRGVVIDKEVVHPGMPKRVEKAKIALINDALEVKETETDAEIRITSPEQLQAFLEQEERMLREMVEKIKEVGANVVFVQKGIDDLAQHYLAKYGIMAVRRVKKSDMEKLAKATGAKIVTNIRDLTPEDLGYAELVEERKVAGESMIFVEGCQNPKAVTILIRGGTEHVVDEVERALEDAIKVVKDILEDGKILAGGGAPEIELAIRLDEYAKEVGGKEQLAIEAFAEALKVIPRTLAENAGLDPIETLVKVIAAHKEKGPTIGVDVYEGEPADMLERGVIEPLRVKKQAIKSASEAAIMILRIDDVIAASKLEKEKEKEGEKGGGSEDFSSDLD | not soluble
5 | QETGISMIGERTNSNGSKAFREAMLSGDWEKCVDIAKQQTRDGAHMLDLCVDYVGRDGTADMATLAALLATSSTLPIMIDSTEPEVIRTGLEHLGGRSIVNSVNFEDGDGPESRYQRIMKLVKQHGAAVVALTIDEEGQARTAEHKVRIAKRLIDDITGSYGLDIKDIVVDCLTFPISTGQEETRRDGIETIEAIRELKKLYPEIHTTLGLSNISFGLNPAARQVLNSVFLNECIEAGLDSAIAHSSKILPMNRIDDRQREVALDMVYDRRTEDYDPLQEFMQLFEGVSAAD | not soluble
6 | MHSSILLLLSFASITTACPGLLNIFGGAGGGGCGGCGGGCGGGCGCAPPPPPCCGGGCGGCGRKKRSLPEKPTFVGIADSGDDVMCNTPALKKIILENIQTTASDSSKAINTVLESRQIQRFVVVCSEKPFVFTFRADAAYCGATKNGHNCHAFAM | not soluble
7 | MGHHHHHHGSLVPRGSDVQELNSIIQRISKFDNILKDKTIINQQDLRQISWNGIPKIHRPVVWKLLIGYLPVNTKRQEGFLQRKRKEYRDSLKHTFSDQHSRDIPTWHQIEIDIPRTNPHIPLYQFKSVQNSLQRILYLWAIRHPASGYVQGINDLVTPFFETFLTEYLPPSQIDDVKIKDPSTYMVDEQITDLEADTFWCLTKLLEQITDNYIHGQPGILRQVKNLSQLVKRIDADLYNHFQNEHVEFIQFAFRWMNCLLMREFQMGTVIRMWDTYLSETSQEVTSSYSMSSNDIKPPVTPTEPRVASFVTPTKDFQSPTTALSNMTPNNAVEDSGKMRQSSLNEFHVFVCAAFLIKWSDQLMEMDFQETITFLQNPPTKDWTETDIEMLLSEAFIWQSLYKDATSHWL | soluble
8 | MGSDKIHHHHHHMAENNTPQETEQDQEARFREEFEVGGKDRQLSEEEQLEQLGSYIDAHYPVPDFTPPWAGGAGDPDPADRYIAHLPDRTTHTAMIMLGSGLDHSMPGVAFIGGVSVDDVPEVGGAIFHPSNPTGRWAVSFHSGGWWRGSGDALEFQWRPEVAAAAELSGTTILDLDYPLAPGHNLHDMNEVVGKAVGYARHHNPVSITGWGYSSGAALAAINASLFDALVLTFPDLGSVEKLPAEIRGDAVVPAAAAWPTTFVQIAAQDEIAERPGELGDATVKEYVSRHRISTPKVAREKITDVAEFLKTVC | not soluble
